Results as given in patent publication US20180147257A1.

Columns and labels:
Experiment in all cases: cell-based or functional assay
FLT1 on YT-1 cells = FLT1 on YT-1 cells (UniProt P17948)
HLA-E on YT-1 cells = HLA-E on YT-1 cells (UniProt P13747)
ROR2 on YT-1 cells = ROR2 on YT-1 cells (UniProt Q01974)
LTβR on YT-1 cells = LTβR on YT-1 cells (UniProt P36941)
CD163 on YT-1 cells = CD163 on YT-1 cells (UniProt Q86VB7)
Chain of CD163 on YT-1 cells (Q86VB7 42-1156): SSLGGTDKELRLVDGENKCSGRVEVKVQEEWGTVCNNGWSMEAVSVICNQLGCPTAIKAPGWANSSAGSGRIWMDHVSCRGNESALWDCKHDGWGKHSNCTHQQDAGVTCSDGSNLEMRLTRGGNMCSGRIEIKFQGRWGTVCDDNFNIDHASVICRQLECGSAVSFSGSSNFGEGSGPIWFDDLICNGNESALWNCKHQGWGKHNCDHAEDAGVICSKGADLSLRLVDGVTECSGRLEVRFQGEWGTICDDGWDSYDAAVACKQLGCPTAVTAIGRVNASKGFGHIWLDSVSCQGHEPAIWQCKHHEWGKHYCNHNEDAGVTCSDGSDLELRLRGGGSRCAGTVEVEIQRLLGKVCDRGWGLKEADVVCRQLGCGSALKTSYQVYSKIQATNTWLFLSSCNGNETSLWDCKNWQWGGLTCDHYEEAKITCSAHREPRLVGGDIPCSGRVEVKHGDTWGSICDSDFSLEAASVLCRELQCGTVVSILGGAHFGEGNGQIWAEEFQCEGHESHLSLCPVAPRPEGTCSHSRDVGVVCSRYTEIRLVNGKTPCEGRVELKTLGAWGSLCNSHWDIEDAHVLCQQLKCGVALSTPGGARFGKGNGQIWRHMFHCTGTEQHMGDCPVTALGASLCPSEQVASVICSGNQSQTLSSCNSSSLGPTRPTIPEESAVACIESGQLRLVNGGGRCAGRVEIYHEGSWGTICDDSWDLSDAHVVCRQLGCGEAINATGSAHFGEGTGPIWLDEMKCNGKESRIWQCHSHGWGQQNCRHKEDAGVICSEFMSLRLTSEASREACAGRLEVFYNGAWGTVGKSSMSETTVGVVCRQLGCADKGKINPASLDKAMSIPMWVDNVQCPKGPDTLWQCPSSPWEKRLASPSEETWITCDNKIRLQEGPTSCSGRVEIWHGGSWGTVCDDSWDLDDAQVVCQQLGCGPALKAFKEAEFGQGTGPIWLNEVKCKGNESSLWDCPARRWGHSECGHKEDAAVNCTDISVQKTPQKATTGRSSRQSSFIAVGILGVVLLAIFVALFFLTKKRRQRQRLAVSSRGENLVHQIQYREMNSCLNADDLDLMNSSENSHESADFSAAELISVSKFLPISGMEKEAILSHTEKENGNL

Chain of LTβR on YT-1 cells (P36941 31-435 limits assumed): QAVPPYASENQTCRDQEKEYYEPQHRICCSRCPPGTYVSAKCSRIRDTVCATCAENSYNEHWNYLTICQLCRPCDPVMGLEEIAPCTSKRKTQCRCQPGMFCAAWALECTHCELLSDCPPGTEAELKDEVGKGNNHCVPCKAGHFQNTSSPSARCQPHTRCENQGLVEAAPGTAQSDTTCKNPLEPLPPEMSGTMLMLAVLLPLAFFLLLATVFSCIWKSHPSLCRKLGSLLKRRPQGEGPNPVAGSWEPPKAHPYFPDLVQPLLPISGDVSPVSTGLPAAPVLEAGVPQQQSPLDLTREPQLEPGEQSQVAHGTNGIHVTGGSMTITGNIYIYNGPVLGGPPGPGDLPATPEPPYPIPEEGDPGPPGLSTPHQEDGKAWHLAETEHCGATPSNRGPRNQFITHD
Chain of FLT1 on YT-1 cells (P17948 27-1338 limits assumed): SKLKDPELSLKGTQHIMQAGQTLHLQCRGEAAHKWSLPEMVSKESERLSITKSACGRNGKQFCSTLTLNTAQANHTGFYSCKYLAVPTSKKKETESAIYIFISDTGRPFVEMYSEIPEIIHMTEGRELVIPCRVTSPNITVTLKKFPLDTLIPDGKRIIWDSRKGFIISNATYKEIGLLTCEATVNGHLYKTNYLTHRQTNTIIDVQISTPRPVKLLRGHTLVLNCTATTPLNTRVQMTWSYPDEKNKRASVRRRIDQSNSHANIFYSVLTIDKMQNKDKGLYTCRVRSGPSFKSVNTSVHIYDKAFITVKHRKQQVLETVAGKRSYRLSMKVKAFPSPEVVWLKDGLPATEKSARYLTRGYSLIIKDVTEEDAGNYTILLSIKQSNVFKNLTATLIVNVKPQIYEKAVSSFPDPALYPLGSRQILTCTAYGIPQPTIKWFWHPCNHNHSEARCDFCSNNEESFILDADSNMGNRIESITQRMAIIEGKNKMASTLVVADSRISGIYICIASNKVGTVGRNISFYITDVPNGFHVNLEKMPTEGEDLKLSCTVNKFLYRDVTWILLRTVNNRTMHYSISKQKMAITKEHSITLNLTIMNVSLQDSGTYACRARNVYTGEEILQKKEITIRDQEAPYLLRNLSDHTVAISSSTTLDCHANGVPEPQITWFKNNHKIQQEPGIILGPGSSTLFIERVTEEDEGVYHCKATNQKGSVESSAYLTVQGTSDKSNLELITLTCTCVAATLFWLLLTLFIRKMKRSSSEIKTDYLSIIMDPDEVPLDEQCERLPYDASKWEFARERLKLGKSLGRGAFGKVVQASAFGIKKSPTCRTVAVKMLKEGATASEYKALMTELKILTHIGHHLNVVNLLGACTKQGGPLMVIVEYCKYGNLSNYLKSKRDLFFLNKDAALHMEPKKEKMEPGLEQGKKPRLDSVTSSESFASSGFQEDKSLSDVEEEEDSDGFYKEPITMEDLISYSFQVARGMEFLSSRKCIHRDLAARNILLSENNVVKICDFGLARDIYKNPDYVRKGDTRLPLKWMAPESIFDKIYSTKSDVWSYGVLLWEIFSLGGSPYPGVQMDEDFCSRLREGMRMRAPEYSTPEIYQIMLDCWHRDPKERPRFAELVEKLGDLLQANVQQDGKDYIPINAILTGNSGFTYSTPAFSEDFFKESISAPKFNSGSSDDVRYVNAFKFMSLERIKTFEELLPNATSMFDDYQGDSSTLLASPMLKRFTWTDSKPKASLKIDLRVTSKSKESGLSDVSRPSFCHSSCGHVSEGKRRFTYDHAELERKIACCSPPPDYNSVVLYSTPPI
Chain of ROR2 on YT-1 cells (Q01974 34-943 limits assumed): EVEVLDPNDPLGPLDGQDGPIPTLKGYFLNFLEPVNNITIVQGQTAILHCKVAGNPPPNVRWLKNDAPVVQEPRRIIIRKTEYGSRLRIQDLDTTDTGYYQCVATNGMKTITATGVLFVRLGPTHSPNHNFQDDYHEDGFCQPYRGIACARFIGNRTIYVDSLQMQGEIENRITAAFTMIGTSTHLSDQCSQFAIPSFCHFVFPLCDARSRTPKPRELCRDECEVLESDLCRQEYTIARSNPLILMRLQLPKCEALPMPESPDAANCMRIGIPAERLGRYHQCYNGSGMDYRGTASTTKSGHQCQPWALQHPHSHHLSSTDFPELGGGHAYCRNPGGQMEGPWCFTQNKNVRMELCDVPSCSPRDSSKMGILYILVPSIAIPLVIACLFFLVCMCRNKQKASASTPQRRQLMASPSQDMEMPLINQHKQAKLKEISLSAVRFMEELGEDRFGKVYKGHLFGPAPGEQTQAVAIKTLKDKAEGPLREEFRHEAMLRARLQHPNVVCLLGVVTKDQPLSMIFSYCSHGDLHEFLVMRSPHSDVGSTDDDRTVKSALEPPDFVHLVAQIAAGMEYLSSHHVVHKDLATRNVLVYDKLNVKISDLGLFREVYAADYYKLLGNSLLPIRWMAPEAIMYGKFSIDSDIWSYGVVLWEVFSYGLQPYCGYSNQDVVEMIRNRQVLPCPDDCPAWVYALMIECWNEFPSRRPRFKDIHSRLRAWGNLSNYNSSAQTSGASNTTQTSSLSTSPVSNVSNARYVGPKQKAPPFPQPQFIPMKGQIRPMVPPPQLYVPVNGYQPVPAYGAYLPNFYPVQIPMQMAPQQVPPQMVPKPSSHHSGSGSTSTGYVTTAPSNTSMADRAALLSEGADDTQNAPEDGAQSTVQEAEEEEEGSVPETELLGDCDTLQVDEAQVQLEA
Chain of HLA-E on YT-1 cells (P13747 22-358 limits assumed): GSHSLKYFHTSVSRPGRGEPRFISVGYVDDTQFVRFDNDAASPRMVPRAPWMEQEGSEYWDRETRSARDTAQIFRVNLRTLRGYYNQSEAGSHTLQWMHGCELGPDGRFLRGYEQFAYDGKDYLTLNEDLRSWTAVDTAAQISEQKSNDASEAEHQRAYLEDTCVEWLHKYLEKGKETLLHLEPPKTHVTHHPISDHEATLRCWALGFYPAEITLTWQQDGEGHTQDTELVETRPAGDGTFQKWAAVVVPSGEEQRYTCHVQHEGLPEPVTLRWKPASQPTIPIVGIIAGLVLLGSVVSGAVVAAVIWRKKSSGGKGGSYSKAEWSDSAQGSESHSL

fluorescently coupled BTN3A ectodomain fused to the Fc fragment of human IgG4 (Fc fusion)
Log 10 fold change of sgRNAs in YT-1 GeCKO library cells sorted for non-binding to BTN3A-IgG4 (Log 10 fold change) (FLT1 on YT-1 cells): 3.7
Log 10 fold change of sgRNAs in YT-1 GeCKO library cells sorted for non-binding to BTN3A-IgG4 (Log 10 fold change) (HLA-E on YT-1 cells): 3.66
Log 10 fold change of sgRNAs in YT-1 GeCKO library cells sorted for non-binding to BTN3A-IgG4 (Log 10 fold change) (ROR2 on YT-1 cells): 3.54
Log 10 fold change of sgRNAs in YT-1 GeCKO library cells sorted for non-binding to BTN3A-IgG4 (Log 10 fold change) (LTβR on YT-1 cells): 3.69
Log 10 fold change of sgRNAs in YT-1 GeCKO library cells sorted for non-binding to BTN3A-IgG4 (Log 10 fold change) (CD163 on YT-1 cells): 3.56
